We go through two variants from IntAct's records for PubMed 22246185.

Sequences and labels used below:
B1: Apoptotic protease-activating factor 1 (Homo sapiens), O14727 (parent)
chain: MDAKARNCLLQHREALEKDIKTSYIMDHMISDGFLTISEEEKVRNEPTQQQRAAMLIKMILKKDNDSYVSFYNALLHEGYKDLAALLHDGIPVVSSSSGKDSVSGITSYVRTVLCEGGVPQRPVVFVTRKKLVNAIQQKLSKLKGEPGWVTIHGMAGCGKSVLAAEAVRDHSLLEGCFPGGVHWVSVGKQDKSGLLMKLQNLCTRLDQDESFSQRLPLNIEEAKDRLRILMLRKHPRSLLILDDVWDSWVLKAFDSQCQILLTTRDKSVTDSVMGPKYVVPVESSLGKEKGLEILSLFVNMKKADLPEQAHSIIKECKGSPLVVSLIGALLRDFPNRWEYYLKQLQNKQFKRIRKSSSYDYEALDEAMSISVEMLREDIKDYYTDLSILQKDVKVPTKVLCILWDMETEEVEDILQEFVNKSLLFCDRNGKSFRYYLHDLQVDFLTEKNCSQLQDLHKKIITQFQRYHQPHTLSPDQEDCMYWYNFLAYHMASAKMHKELCALMFSLDWIKAKTELVGPAHLIHEFVEYRHILDEKDCAVSENFQEFLSLNGHLLGRQPFPNIVQLGLCEPETSEVYQQAKLQAKQEVDNGMLYLEWINKKNITNLSRLVVRPHTDAVYHACFSEDGQRIASCGADKTLQVFKAETGEKLLEIKAHEDEVLCCAFSTDDRFIATCSVDKKVKIWNSMTGELVHTYDEHSEQVNCCHFTNSSHHLLLATGSSDCFLKLWDLNQKECRNTMFGHTNSVNHCRFSPDDKLLASCSADGTLKLWDATSANERKSINVKQFFLNLEDPQEDMEVIVKCCSWSADGARIMVAAKNKIFLFDIHTSGLLGEIHTGHHSTIQYCDFSPQNHLAVVALSQYCVELWNTDSRSKVADCRGHLSWVHGVMFSPDGSSFLTSSDDQTIRLWETKKVCKNSAVMLKQEVDVVFQENEVMVLAVDHIRRLQLINGRTGQIDYLTEAQVSCCCLSPHLQYIAFGDENGAIEILELVNNRIFQSRFQHKKTVWHIQFTADEKTLISSSDDAEIQVWNWQLDKCIFLRGHQETVKDFRLLKNSRLLSWSFDGTVKVWNIITGNKEKDFVCHQGTVLSCDISHDATKFSSTSADKTAKIWSFDLLLPLHELRGHNGCVRCSAFSVDSTLLATGDDNGEIRIWNVSNGELLHLCAPLSEEGAATHGGWVTDLCFSPDGKMLISAGGYIKWWNVVTGESSQTFYTNGTNLKKIHVSPDFKTYVTVDNLGILYILQTLE

The variants in one assay derive from B1. As to conditions: with 1433e_human YWHAE.
In the case of S357A, the “effect of a mutation on the interaction” value is given as “decreasing interaction”.

A further assay covers variants of B1. As to conditions: with 1433e_human YWHAE. The source holds these as a separate data set.
Regarding S268A, the “effect of a mutation on the interaction” value is “decreasing interaction”.
